We go through one molecule from publication doi:10.1101/2023.11.17.567542 (bioRxiv, 2023).

The assay deals with T1, HypD (Escherichia coli, UniProt P24192 1-373).
T1 sequence (looked up): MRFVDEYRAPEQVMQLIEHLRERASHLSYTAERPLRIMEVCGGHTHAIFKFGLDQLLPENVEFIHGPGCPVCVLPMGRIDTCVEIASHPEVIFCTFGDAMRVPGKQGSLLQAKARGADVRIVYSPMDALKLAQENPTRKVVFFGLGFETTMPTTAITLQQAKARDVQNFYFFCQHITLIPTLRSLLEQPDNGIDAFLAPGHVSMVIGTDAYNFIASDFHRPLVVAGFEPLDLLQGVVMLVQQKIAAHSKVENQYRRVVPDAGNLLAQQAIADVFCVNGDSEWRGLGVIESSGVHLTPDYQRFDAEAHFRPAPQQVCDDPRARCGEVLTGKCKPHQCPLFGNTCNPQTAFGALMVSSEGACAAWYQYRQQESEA
The experiment in a line: pull-down.

B1: StrepII-tagged HypC with amino acid exchange C2A (natural protein, Escherichia coli, UniProt P0AAM3 2-90, looked up)
chain: AIGVPGQIRTIDGNQAKVDVCGIQRDVDLTLVGSCDENGQPRVGQWVLVHVGFAMSVINEAEARDTLDALQNMFDVEPDVGALLYGEEK
B1: the binding result was “binds”.
